Experimental data taken from patent publication US10047138.

Key:
[1] = molecular target: ICOS-CD3 III fusion protein (human); assay: cell-based or functional assay
[2] = molecular target: full length human wild type ICOS (human) (UniProt Q9Y6W8); assay: cell-based or functional assay
Chain of UniProt Q9Y6W8 (Q9Y6W8 21-199): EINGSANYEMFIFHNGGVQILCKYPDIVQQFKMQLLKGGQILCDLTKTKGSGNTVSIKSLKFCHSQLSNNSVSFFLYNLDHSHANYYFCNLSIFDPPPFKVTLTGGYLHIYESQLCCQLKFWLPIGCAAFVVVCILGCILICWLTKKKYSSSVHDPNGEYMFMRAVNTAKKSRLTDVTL

Chain of ICOS-CD3 III fusion protein (human) (chain, as listed by the source limits assumed): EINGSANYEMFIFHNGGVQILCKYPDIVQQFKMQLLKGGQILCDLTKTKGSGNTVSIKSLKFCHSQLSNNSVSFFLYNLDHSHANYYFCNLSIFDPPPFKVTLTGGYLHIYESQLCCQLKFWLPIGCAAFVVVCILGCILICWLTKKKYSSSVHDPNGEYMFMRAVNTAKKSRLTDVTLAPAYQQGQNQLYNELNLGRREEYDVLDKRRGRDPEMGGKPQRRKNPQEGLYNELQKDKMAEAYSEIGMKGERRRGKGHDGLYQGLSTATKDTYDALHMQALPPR

For “B7RP1-Fc protein (from UniProt O75144 19-253) (Fc fusion)”, the IL-2 secretion (RLU), difference between clusters 1 (anti-CD3 alone) and 3 (anti-CD3 plus B7RP1-Fc) [1] was greater than 200 fold, the IL-2 secretion by Jurkat cells, 2.5 µg/mL anti-CD3 antibody plus 50 µg/mL B7RP1-Fc against anti-CD3 antibody alone [1] was greater than 170 fold and the IL-2 secretion (RLU), difference between clusters 1 (anti-CD3 alone) and 3 (anti-CD3 plus B7RP1-Fc) [2] was less than 8 fold. For the same substance, the IL-2 secretion by Jurkat cells, 2.5 µg/mL anti-CD3 antibody plus 50 µg/mL B7RP1-Fc against anti-CD3 antibody alone [2] was less than 17 fold.
